B1: CeMIGA2_(long), C. elegans MIGA (106-496) (domain or fragment, UniProt Q21096 106-496, looked up)
chain: SMNPIEADITSGQELCTELRKTIEKVHHNLEMVKNRSSKDMERSIKIEGILKGLKQVEDEIVLLVPQMEDFRDDNMEFYSVSGGSGYAGSVRTGRSRTLSVLSDDSFRSAVEEFACDIDDIDFVSDAANLDKNELRFLDEGMQAALNGEVKYRKSRMEFCKCDSETDFAAKLYCVRQALTNALKDEHKRVWLAKCGRTLLADFIRHTKQDPVKFFNAYDEMLEYVSNDRNEEQLRQDVEGRGVCETGFYDVAIDFIILDAFEDLKSPPSAVYSVTKNYFMSMSMKYSTLNTIIWSIIKSKRQRLKNPDGFIAKFYNISETVMPAITLGFLGTDERLGELCQYFKEQVVQFVLDVFNTQKVCYRSLEEMSEDVWIVMRNRLEAVQTRMSNEL

Assays:
[1] = target: hMIGA2_(long)-6xhis (human) (UniProt Q7L4E1); assay: native MS
SEC = target: the molecule itself; assay: SEC

| Molecule | stoichiometry N [1] | stoichiometry N (SEC) |
| --- | --- | --- |
| hMIGA2_(long)-6xhis (from UniProt Q7L4E1 170-593) (domain or fragment) | 2 | – |
| B1 | – | 2 |
